Patent publication US20060024271A1 (priority 2004, published 2006)
Where two headings read alike, the source gives them in different places.

B1: IFN-γ (protein, UniProt P01579 24-161, looked up)
Interferon gamma: QDPYVKEAENLKKYFNAGHSDVADNGTLFLGILKNWKEESDRKIMQSQIVSFYFKLFKNFKDDQSIQKSVETIKEDMNVKFFNSNKKKRDDFEKLTNYSVTDLNVQRKAIHELIQVMAELSPAAKTGKRKRSQMLFRG

What was measured:
Assay type in all cases: in vivo, BALB/c mice
vaccinia virus [1] = conditions: for survival of vaccinia infected mice: 5×10^3 U/mouse/day i.n., 5 days, started one day before infection, 8 LD50, 21 days monitoring
vaccinia virus [2] = conditions: 8 LD50
vaccinia virus [3] = conditions: IFN-γ 5,000 to 20,000 U i.n., daily for five days from one day after infection; 50 LD50

Molecule	survival of vaccinia infected mice (vaccinia virus [1]) [%]	protection against severe vaccinia infection (vaccinia virus [1]; IFN-α 5,000 U intranasal, 50 LD50 as printed in b34 (FIG. 2))	survival of vaccinia infected mice (vaccinia virus [2]; IFN-γ 2,000 U only, i.n., 5 days from one day after infection) [%]	protection of vaccinia infected mice (vaccinia virus [2]; IFN-γ 5,000 U) [%]	protection against severe vaccinia infection (vaccinia virus [3])
IFN-α	100	70-80%			
B1	90		80	100	70-80%
